Measured values as given in PMC11605055.

Biological target: T1, HIM-8 ZF1-2-CTD (Caenorhabditis elegans (N2), UniProt O18068 223-361)
T1 sequence: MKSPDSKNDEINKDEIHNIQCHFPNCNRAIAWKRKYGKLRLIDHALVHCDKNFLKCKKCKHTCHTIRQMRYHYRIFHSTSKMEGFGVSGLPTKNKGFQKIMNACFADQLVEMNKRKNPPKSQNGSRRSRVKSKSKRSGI
Assay: ITC

B1: X PC motif TG to CA (dsDNA)
DNA 1: TTGGTCAGCACA
DNA 2: TGTGCTGACCAA
- binding result: no binding

B2: X chromosome PC motif 12 bp (dsDNA)
DNA 1: TTGGTCAGTGCA
DNA 2: TGCACTGACCAA
- Kd: 430 ± 10 nM
